Where two headings read alike, the source gives them in different places. One block for each molecule: values may come before it.
Key:
[1] = biological target: mouse talin1 R1 VBS (H4) peptide, fluorescein labelled (mouse); assay: fluorescence polarisation; fluorescein-labelled VBS peptide at 700 nM, 2-fold serial dilution of protein, triplicate, 25°C; one-site total binding equation
[2] = tested on: Vinculin-null mouse embryonic fibroblasts (MEF); assay: Adhesion localization, vinculin/talin intensity (immunostaining, confocal); type: cell-based; details: full-length vinculin; vs WT vinculin; n = 22 (WT) and 23 (Q19S) cells
Procedure: Vinculin-null mouse embryonic fibroblasts (MEF) were a kind gift from Prof. Carsten Grashoff (University of Münster) and have been previously described. Cells were maintained at 10–80% confluency in high-glucose Dulbecco’s modified Eagle medium with GlutaMax (10566016, Thermo Fisher Scientific) supplemented with 10% fetal bovine serum (Gibco) in a humidified 37°C, 5% CO2 incubator. For FRAP experiments, Vin-/- MEF cells were adapted to FluoroBrite DMEM medium (Thermo Fisher Scientific) supplemented with 10% fetal bovine serum and 1% GlutaMax for a minimum of 48 hours.
mEmerald-Vinculin-N-21 was a gift from Michael Davidson (Addgene plasmid # 54304; http://n2t.net/addgene:54304; RRID:Addgene_54304). To restore the wildtype human vinculin sequence, L234V backmutation was introduced to all vinculin constructs. Q19S mutation was introduced by GenScript cloning service. All plasmid constructs were authenticated by sequencing. Vin-/- MEF cells were transfected with the Neon transfection system (Thermo Fisher Scientific). […]
For adhesion intensity analysis, immunostained cells were imaged using a Nikon Eclipse Ti2-E inverted microscope equipped with A1R+ laser scanning confocal unit (Nikon) and Nikon CFI Plan Apo IR SR 60x WI (NA 1.27) objective. […] Talin and vinculin intensities in adhesion sites were analyzed using Fiji distribution of ImageJ 1.53t. […]

[3] = tested on: talin; details: cited from earlier work
Excerpt: (Fig 1H). However, how the complexation occurs when the VBS structure is destabilized by force remains unclear. ... || Constant velocity SMD is known to overestimate the unfolding force magnitude, and the measured unfolding forces were approximately one order of magnitude higher when compared to the force required experimentally for vinculin dissociation from talin (above 25 pN). Therefore, to reach unfolding force magnitude within the force range seen in previous studies (<100 pN), we performed microsecond-scale constant force SMD simulations. Using constant force at 70 pN, we achieved limited but noticeable VBS destabilization in the vinculin-bound state within 3 μs. Increasing the fo ... || To assess the thermodynamic parameters of recognition and binding of partially unfolded talin VBS by vinculin, we used umbrella sampling and the weighted histogram analysis method to calculate the vinculin–VBS binding energy profiles. We used two different starting states of VBS: 1) fully α-helical VBS and 2) partially unfolded VBS, stretched by 1.5 nm. This distance was chosen to be consistent with the previously observed contractions upon vinculin binding to R3 (∼1.5–2.5 nm per VBS, depending on force magnitude). The whole process of vinculin–VBS binding was divided into three ... || (+ 2 further places)

Chain of mouse talin1 R1 VBS (H4) peptide, fluorescein labelled (mouse) (peptide, as listed by the source): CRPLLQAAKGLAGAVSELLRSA

fold higher affinity than WT mVD1 [1]: 1.75 fold
Molecule: VD1 domain of mouse vinculin, Q19S (domain or fragment)

B1: Q19S vinculin: full-length mEmerald-vinculin with Q19S mutation (protein, UniProt Q64727 1-1066, looked up, variant Q19S)
chain: MPVFHTRTIESILEPVAQSISHLVIMHEEGEVDGKAIPDLTAPVAAVQAAVSNLVRVGKETVQTTEDQILKRDMPPAFIKVENACTKLVQAAQMLQSDPYSVPARDYLIDGSRGILSGTSDLLLTFDEAEVRKIIRVCKGILEYLTVAEVVETMEDLVTYTKNLGPGMTKMAKMIDERQQELTHQEHRVMLVNSMNTVKELLPVLISAMKIFVTTKNSKNQGIEEALKNRNFTVEKMSAEINEIIRVLQLTSWDEDAWASKDTEAMKRALASIDSKLNQAKGWLRDPNASPGDAGEQAIRQILDEAGKVGELCAGKERREILGTCKMLGQMTDQVADLRARGQGASPVAMQKAQQVSQGLDVLTAKVENAARKLEAMTNSKQSIAKKIDAAQNWLADPNGGPEGEEQIRGALAEARKIAELCDDPKERDDILRSLGEIAALTSKLGDLRRQGKGDSPEARALAKQVATALQNLQTKTNRAVANSRPAKAAVHLEGKIEQAQRWIDNPTVDDRGVGQAAIRGLVAEGHRLANVMMGPYRQDLLAKCDRVDQLTAQLADLAARGEGESPQARALASQLQDSLKDLKAQMQEAMTQEVSDVFSDTTTPIKLLAVAATAPPDAPNREEVFDERAANFENHSGRLGATAEKAAAVGTANKSTVEGIQASVKTARELTPQVISAARILLRNPGNQAAYEHFETMKNQWIDNVEKMTGLVDEAIDTKSLLDASEEAIKKDLDKCKVAMANIQPQMLVAGATSIARRANRILLVAKREVENSEDPKFREAVKAASDELSKTISPMVMDAKAVAGNISDPGLQKSFLDSGYRILGAVAKVREAFQPQEPDFPPPPPDLEQLRLTDELAPPKPPLPEGEVPPPRPPPPEEKDEEFPEQKAGEVINQPMMMAARQLHDEARKWSSKGNDIIAAAKRMALLMAEMSRLVRGGSGTKRALIQCAKDIAKASDEVTRLAKEVAKQCTDKRIRTNLLQVCERIPTISTQLKILSTVKATMLGRTNISDEESEQATEMLVHNAQNLMQSVKETVREAEAASIKIRTDAGFTLRWVRKTPWYQ
modifications: full-length mEmerald
notes: full-length mEmerald-vinculin with Q19S mutation
incorporation into talin-rich focal adhesions [2]: incorporated into talin-rich focal adhesions similarly

B2: vinculin: vinculin in cited magnetic tweezers experiments with talin (protein, UniProt P18206 1-1134, looked up)
Vinculin: MPVFHTRTIESILEPVAQQISHLVIMHEEGEVDGKAIPDLTAPVAAVQAAVSNLVRVGKETVQTTEDQILKRDMPPAFIKVENACTKLVQAAQMLQSDPYSVPARDYLIDGSRGILSGTSDLLLTFDEAEVRKIIRVCKGILEYLTVAEVVETMEDLVTYTKNLGPGMTKMAKMIDERQQELTHQEHRVMLVNSMNTVKELLPVLISAMKIFVTTKNSKNQGIEEALKNRNFTVEKMSAEINEIIRVLQLTSWDEDAWASKDTEAMKRALASIDSKLNQAKGWLRDPSASPGDAGEQAIRQILDEAGKVGELCAGKERREILGTCKMLGQMTDQVADLRARGQGSSPVAMQKAQQVSQGLDVLTAKVENAARKLEAMTNSKQSIAKKIDAAQNWLADPNGGPEGEEQIRGALAEARKIAELCDDPKERDDILRSLGEISALTSKLADLRRQGKGDSPEARALAKQVATALQNLQTKTNRAVANSRPAKAAVHLEGKIEQAQRWIDNPTVDDRGVGQAAIRGLVAEGHRLANVMMGPYRQDLLAKCDRVDQLTAQLADLAARGEGESPQARALASQLQDSLKDLKARMQEAMTQEVSDVFSDTTTPIKLLAVAATAPPDAPNREEVFDERAANFENHSGKLGATAEKAAAVGTANKSTVEGIQASVKTARELTPQVVSAARILLRNPGNQAAYEHFETMKNQWIDNVEKMTGLVDEAIDTKSLLDASEEAIKKDLDKCKVAMANIQPQMLVAGATSIARRANRILLVAKREVENSEDPKFREAVKAASDELSKTISPMVMDAKAVAGNISDPGLQKSFLDSGYRILGAVAKVREAFQPQEPDFPPPPPDLEQLRLTDELAPPKPPLPEGEVPPPRPPPPEEKDEEFPEQKAGEVINQPMMMAARQLHDEARKWSSKPGIPAAEVGIGVVAEADAADAAGFPVPPDMEDDYEPELLLMPSNQPVNQPILAAAQSLHREATKWSSKGNDIIAAAKRMALLMAEMSRLVRGGSGTKRALIQCAKDIAKASDEVTRLAKEVAKQCTDKRIRTNLLQVCERIPTISTQLKILSTVKATMLGRTNISDEESEQATEMLVHNAQNLMQSVKETVREAEAASIKIRTDAGFTLRWVRKTPWYQ
vinculin–VBS binding above 15 pN ([3]; above 15 pN, ref [26]): fast transition
increase in talin end-to-end distance on vinculin dissociation ([3]; above 25 pN, ref [22],[26]): ~3 nm
contraction per VBS on vinculin binding to R3 ([3]; depending on force magnitude, ref [26]): 1.5–2.5 nm
time of vinculin–VBS binding under lower forces ([3]; lower forces, ref [26]): within hundreds of milliseconds
force for vinculin dissociation from talin ([3]; ref [22],[26]): above 25 pN
reduction in talin end-to-end distance on vinculin binding ([3]; talin R3, 9 pN, ref [26]): ~ 1.5 nm
reduction in talin end-to-end distance on vinculin binding ([3]; talin R3, 20 pN, ref [26]): ~ 2.5 nm
